Assay results taken from US20090258001A1.

Columns and labels:
[1] = biological target: CD3 (CD3/TCR complex) on CD4+ and CD8+ T cells of patients (human) (UniProt P07766); assay: flow cytometry of CD4+ T cells, free CD3 sites by biotinylated TRX4; Example 3 Cohort 2, third 0.5 mg dose
[2] = biological target: CD3 (CD3/TCR complex) on CD4+ and CD8+ T cells of patients (human) (UniProt P07766); assay: flow cytometry of CD4+ T cells, anti-human IgG; Example 4 Cohort A, end of 0.5 mg infusion
[3] = biological target: CD3 (CD3/TCR complex) on CD4+ and CD8+ T cells of patients (human) (UniProt P07766); assay: flow cytometry of CD4+ T cells, free CD3 sites by biotinylated TRX4; Example 4 Cohort A, 2 hours after last infusion
[4] = biological target: CD3 (CD3/TCR complex) on CD4+ and CD8+ T cells of patients (human) (UniProt P07766); assay: flow cytometry of CD4+ T cells, anti-human IgG; Example 4 Cohort A, end of 0.2 mg infusion
[5] = biological target: CD3 (CD3/TCR complex) on CD4+ and CD8+ T cells of patients (human) (UniProt P07766); assay: flow cytometry of CD4+ T cells, anti-human IgG; Example 4 Cohort C, end of 0.1 mg infusion
[6] = biological target: CD3 (CD3/TCR complex) on CD4+ and CD8+ T cells of patients (human) (UniProt P07766); assay: flow cytometry of CD4+ T cells, anti-human IgG; Example 4 Cohort C, end of 0.2 mg infusion
[7] = biological target: CD3 (CD3/TCR complex) on CD4+ and CD8+ T cells of patients (human) (UniProt P07766); assay: flow cytometry of CD4+ T cells, free CD3 sites by biotinylated TRX4; Example 3 Cohort 3, 0.1 mg
[8] = biological target: CD3 (CD3/TCR complex) on CD4+ and CD8+ T cells of patients (human) (UniProt P07766); assay: flow cytometry of CD4+ T cells, free CD3 sites by biotinylated TRX4; Example 4 Cohort A, 0.2 mg
[9] = biological target: CD3 (CD3/TCR complex) on CD4+ and CD8+ T cells of patients (human) (UniProt P07766); assay: flow cytometry of CD4+ T cells, anti-human IgG; Example 4 Cohort B, end of 0.3 mg infusion
[10] = biological target: CD3 (CD3/TCR complex) on CD4+ and CD8+ T cells of patients (human) (UniProt P07766); assay: flow cytometry of CD4+ T cells, free CD3 sites by biotinylated TRX4; Example 4 Cohort B, 0.75 mg
[11] = biological target: CD3 (CD3/TCR complex) on CD4+ and CD8+ T cells of patients (human) (UniProt P07766); assay: flow cytometry of CD4+ T cells, anti-human IgG; Example 4 Cohort A*, end of 0.25 mg infusion
[12] = biological target: CD3 (CD3/TCR complex) on CD4+ and CD8+ T cells of patients (human) (UniProt P07766); assay: flow cytometry of CD4+ T cells, free CD3 sites by biotinylated TRX4; Example 3 Cohort 2, 2 hours after end of infusion
[13] = biological target: CD3 (CD3/TCR complex) on CD4+ and CD8+ T cells of patients (human) (UniProt P07766); assay: flow cytometry of CD4+ T cells, anti-human IgG; Example 4 Cohort B, end of 0.2 mg infusion
[14] = biological target: CD3 (CD3/TCR complex) on CD4+ and CD8+ T cells of patients (human) (UniProt P07766); assay: flow cytometry of CD4+ T cells, anti-human IgG; Example 3 Cohort 3, end of 0.3 mg infusion
[15] = biological target: CD3 (CD3/TCR complex) on CD4+ and CD8+ T cells of patients (human) (UniProt P07766); assay: flow cytometry of CD4+ T cells, free CD3 sites by biotinylated TRX4; Example 3 Cohort 2, second 0.5 mg dose
[16] = biological target: CD3 (CD3/TCR complex) on CD4+ and CD8+ T cells of patients (human) (UniProt P07766); assay: flow cytometry of CD4+ T cells, free CD3 sites by biotinylated TRX4; Example 4 Cohort B, Day 5
[17] = biological target: CD3 (CD3/TCR complex) on CD4+ and CD8+ T cells of patients (human) (UniProt P07766); assay: flow cytometry of CD4+ T cells, free CD3 sites by biotinylated TRX4; Example 4 Cohort B, 0.2 mg
[18] = biological target: CD3 (CD3/TCR complex) on CD4+ and CD8+ T cells of patients (human) (UniProt P07766); assay: flow cytometry of CD4+ T cells, anti-human IgG; Example 4 Cohort A*, end of 0.15 mg infusion
[19] = biological target: CD3 (CD3/TCR complex) on CD4+ and CD8+ T cells of patients (human) (UniProt P07766); assay: flow cytometry of CD4+ T cells, free CD3 sites by biotinylated TRX4; Example 4 Cohort A, 0.1 mg
[20] = biological target: CD3 (CD3/TCR complex) on CD4+ and CD8+ T cells of patients (human) (UniProt P07766)
[21] = biological target: CD3 (CD3/TCR complex) on CD4+ and CD8+ T cells of patients (human) (UniProt P07766); assay: flow cytometry of CD4+ T cells, free CD3 sites by biotinylated TRX4; Example 4 Cohort A*, 0.05 mg
[22] = biological target: CD3 (CD3/TCR complex) on CD4+ and CD8+ T cells of patients (human) (UniProt P07766); assay: flow cytometry of CD4+ T cells, anti-human IgG; Example 4 Cohort C, end of 0.3 mg infusion
[23] = biological target: CD3 (CD3/TCR complex) on CD4+ and CD8+ T cells of patients (human) (UniProt P07766); assay: flow cytometry of CD4+ T cells, anti-human IgG; Example 3 Cohort 3, end of 0.1 mg infusion
[24] = biological target: CD3 (CD3/TCR complex) on CD4+ and CD8+ T cells of patients (human) (UniProt P07766); assay: flow cytometry of CD4+ T cells, anti-human IgG; Example 4 Cohort B, about 24 hours after 0.75 mg infusion
[25] = biological target: CD3 (CD3/TCR complex) on CD4+ and CD8+ T cells of patients (human) (UniProt P07766); assay: flow cytometry of CD4+ T cells, free CD3 sites by biotinylated TRX4; Example 4 Cohort C, 0.1 mg

Sequence of UniProt P07766 (P07766 23-207, chain 1 of 3): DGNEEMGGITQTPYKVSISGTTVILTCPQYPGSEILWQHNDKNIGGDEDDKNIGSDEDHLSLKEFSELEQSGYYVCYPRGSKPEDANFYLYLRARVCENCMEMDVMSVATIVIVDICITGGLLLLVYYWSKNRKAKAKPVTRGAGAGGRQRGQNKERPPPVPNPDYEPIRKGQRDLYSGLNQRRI
Sequence of UniProt P07766 (chain, as listed by the source, chain 2 of 3): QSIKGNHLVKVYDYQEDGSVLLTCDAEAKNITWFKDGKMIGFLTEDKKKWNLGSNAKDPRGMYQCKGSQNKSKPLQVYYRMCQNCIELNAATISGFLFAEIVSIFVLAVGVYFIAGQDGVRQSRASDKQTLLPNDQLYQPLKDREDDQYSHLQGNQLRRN
Sequence of UniProt P07766 (chain, as listed by the source, chain 3 of 3): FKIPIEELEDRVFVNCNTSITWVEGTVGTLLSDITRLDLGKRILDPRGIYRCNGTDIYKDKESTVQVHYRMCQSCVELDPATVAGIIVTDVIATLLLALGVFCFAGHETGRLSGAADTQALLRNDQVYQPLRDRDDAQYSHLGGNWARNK

percent saturation of CD3 [1]: 95% | cell-bound TRX4 (MESF of anti-human IgG) [2]: 450000 MESF units | percent saturation of CD3 [3]: 60% | cell-bound TRX4 (MESF of anti-human IgG) [4]: 375000 MESF units | cell-bound TRX4 (MESF of anti-human IgG) [5]: 800000 MESF units | cell-bound TRX4 (MESF of anti-human IgG) [6]: 1.2e+06 MESF units | percent saturation of CD3 [7]: 45% | percent saturation of CD3 [8]: 70% | cell-bound TRX4 (MESF of anti-human IgG) [9]: 420000 MESF units | percent saturation of CD3 [10]: 95% | cell-bound TRX4 (MESF of anti-human IgG) [11]: 80000 MESF units | percent saturation of CD3 [12]: 55% | cell-bound TRX4 (MESF of anti-human IgG) [13]: 400000 MESF | cell-bound TRX4 (MESF of anti-human IgG) [14]: 300000 MESF units | percent saturation of CD3 [15]: 80% | percent saturation of CD3 [16]: 40% | percent saturation of CD3 [17]: 60% | cell-bound TRX4 (MESF of anti-human IgG) [18]: 800000 MESF units | percent saturation of CD3 [19]: 40% | CD3/TCR modulation (decrease in MESF of TCR αβ on T cells, stained with non-competing antibody BMA031) [20]: > 80% | percent saturation of CD3 [21]: 50% | cell-bound TRX4 (MESF of anti-human IgG) [22]: 600000 MESF units | cell-bound TRX4 (MESF of anti-human IgG) [23]: 100000 MESF units | cell-bound TRX4 (MESF of anti-human IgG) [24]: 200000 MESF units | percent saturation of CD3 [25]: 50%
Substance: TRX4 antibody
